# Results taken from patent US20070092508A1, “Detoxification depot for Alzheimer's disease” (Recombiant Technologies, LLC, priority 2005, published 2007).
# Non-standard residues stand in square brackets, D forms with d. No end group written: not given here.
# Columns and labels:
# Aβ [1] = conditions: AD model mice, after 1 day of treatment; cited from earlier work
# Aβ [2] = target: Aβ (Homo sapiens, UniProt P05067); conditions: shortest fragment of Aβ1-40; cited from earlier work
# Aβ fibril formation = Aβ fibril formation (Homo sapiens, UniProt P05067); conditions: microscopy; cited from earlier work
# [3] = target: T1, biotinylated Aβ^1-40 peptide (Homo sapiens, UniProt P05067); assay: Direct ELISA: plate-immobilised capture peptide probed with biotinylated Aβ1-40; type: binding; conditions: 1 μg/well capture peptide, 1 μg/ml biotinylated Aβ, 2 hours; compared with scrambled or irrelevant control peptide (FIG. 1a)
# T1 construct: purchased
# Procedure: (§1) FIG. 1a graphically illustrates binding of biotinylated Aβ^1-42 and biotinylated Aβ^1-40 peptide (SEQ ID NO: 2) by RI peptide. 96-well plate was coated with the capture peptide (1 μg/well of retro-inverso [RI], scrambled [SCR] or an irrelevant control peptide), blocked with gelatin and probed with 1 μg/ml of biotinylated Aβ peptide for 2 hours and streptavidin peroxidase for 1 hour. Experiments were repeated and were calculated as Mean±SE (N=2) and expressed as pmols Aβ^1-42/ml of binding solution. Graded concentrations of biotinylated Aβ^1-42 peptide (SEQ ID NO: 3) was used as a calibration standard.
# (§2) Testing the binding and stability of biotinylated Aβ peptides in binding solution.
# [4] = target: T2, biotinylated Aβ^1-42 peptide (Homo sapiens, UniProt P05067); assay: Direct ELISA: plate-immobilised capture peptide probed with biotinylated Aβ1-42; type: binding; conditions: 1 μg/well capture peptide, 1 μg/ml biotinylated Aβ, 2 hours; compared with scrambled or irrelevant control peptide (FIG. 1a)
# T2 construct: purchased
# Procedure: as §1, §2
# [5] = target: biotinylated Abeta 1-40 peptide; assay: binding experiments with the gel, ELISA of the solution
# biotinylated Abeta 1-40 peptide, sequence (peptide, as listed by the source): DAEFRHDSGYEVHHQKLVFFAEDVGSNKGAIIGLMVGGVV
# Aβ, sequence (P05067 672-711 limits assumed): as the sequence (peptide, as listed by the source) above
# Aβ (Homo sapiens, UniProt P05067), sequence (P05067 672-711 limits assumed): as the sequence (peptide, as listed by the source) above
# Aβ fibril formation, sequence (P05067 672-711 limits assumed): as the sequence (peptide, as listed by the source) above
# T1 sequence (P05067 672-711): as the sequence (peptide, as listed by the source) above
# T2 sequence (P05067 672-713): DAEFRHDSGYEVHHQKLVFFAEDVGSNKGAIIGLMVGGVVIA
molecule,measurement,setting,value
GM1,levels of Aβ in brain,Aβ [1],reduced in half
same,reduction of Aβ in brain,Aβ [1],~500 ng/g tissue
KLVFF,Aβ binding capacity,Aβ [2],consistently high Aβ binding capacity
same,effect on fibril formation in vitro,Aβ fibril formation,able to interfere with fibril formation
gelsolin,levels of Aβ in brain,Aβ [1],reduced in half
same,reduction of Aβ in brain,Aβ [1],~500 ng/g tissue
phe-phe-val-leu-lys-Cys ([dF][dF][dV][dL][dK][dC]; not fully specified (C-terminus); printed as phe-phe-val-leu-lys-cys) [RI peptide],binding of biotinylated Aβ^1-40 to immobilised peptide,[3],significant and specific binding
same,binding of biotinylated Aβ^1-42 to immobilised peptide,[4],significant and specific binding
FFVLKC (not fully specified; composed of D-amino acids; Cys thiol linked to vinyl sulfone-PEG of the gel matrix; C-terminus amidated per the note to Table 1),percent of possible binding in a 1:1 complex,[5],5%
